Results as given in PMC11514458.

How the values were obtained:
BCDX2 complex [1] = target: T1, BCDX2 complex (human, UniProt O15315;O43502;O75771;O43543 1-384;1-376;1-328;1-280); assay: EMSA; 10 nt sufficient within reversed fork; EMSA: 20 mM Tris-HCl pH 7.5, 2 mM MgCl2, 2 mM ATP, 37 C, 20 nM DNA, glutaraldehyde fixation; stopped-flow: 25 mM Tris-HCl pH 7.5, 5 mM MgCl2, 50 mM KCl, 2 mM ATP, 0.5 mM EDTA, 10% glycerol, 37 C; BLI: 50 mM Tris-HCl pH 7.5, 2 mM ATP, 50 mM KCl, 5 mM MgCl2, 0.05% Tween 20, room temperature; details: protein: recombinant; tags: Strep-tag and His-tag (XRCC2 N-terminal His); copies: 1;1;1;1; label: 3' Cy3 on strand 1; reversed fork of 4 strands, 3' ssDNA tail 10 nt
T1 sequence 1: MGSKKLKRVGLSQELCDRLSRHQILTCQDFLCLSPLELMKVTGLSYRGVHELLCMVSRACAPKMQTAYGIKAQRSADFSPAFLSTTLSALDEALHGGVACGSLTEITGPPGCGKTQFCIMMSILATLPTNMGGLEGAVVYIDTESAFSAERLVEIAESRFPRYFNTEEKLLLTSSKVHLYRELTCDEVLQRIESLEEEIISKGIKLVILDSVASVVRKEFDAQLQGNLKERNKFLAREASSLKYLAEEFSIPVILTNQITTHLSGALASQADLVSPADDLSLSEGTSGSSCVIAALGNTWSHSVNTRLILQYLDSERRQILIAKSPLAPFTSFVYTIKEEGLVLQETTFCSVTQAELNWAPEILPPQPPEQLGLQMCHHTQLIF
T1 sequence 2: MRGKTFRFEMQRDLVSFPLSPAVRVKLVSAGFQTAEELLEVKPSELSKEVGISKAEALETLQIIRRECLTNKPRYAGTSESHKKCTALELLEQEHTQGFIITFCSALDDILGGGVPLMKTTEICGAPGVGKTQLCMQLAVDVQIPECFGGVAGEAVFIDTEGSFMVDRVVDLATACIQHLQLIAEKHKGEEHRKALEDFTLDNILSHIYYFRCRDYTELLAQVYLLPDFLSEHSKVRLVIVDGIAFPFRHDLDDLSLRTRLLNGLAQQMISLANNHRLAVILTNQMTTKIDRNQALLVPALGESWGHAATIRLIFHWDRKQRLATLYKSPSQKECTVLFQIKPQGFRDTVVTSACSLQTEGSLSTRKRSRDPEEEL
T1 sequence 3: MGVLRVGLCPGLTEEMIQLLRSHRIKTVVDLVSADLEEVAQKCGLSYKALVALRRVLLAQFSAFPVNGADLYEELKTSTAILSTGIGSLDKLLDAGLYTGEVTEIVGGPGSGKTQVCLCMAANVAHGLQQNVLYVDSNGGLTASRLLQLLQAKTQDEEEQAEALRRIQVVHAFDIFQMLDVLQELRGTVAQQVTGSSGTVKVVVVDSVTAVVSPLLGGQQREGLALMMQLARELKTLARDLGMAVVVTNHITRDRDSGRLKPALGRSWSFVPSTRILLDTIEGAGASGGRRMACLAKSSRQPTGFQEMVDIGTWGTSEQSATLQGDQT
T1 sequence 4: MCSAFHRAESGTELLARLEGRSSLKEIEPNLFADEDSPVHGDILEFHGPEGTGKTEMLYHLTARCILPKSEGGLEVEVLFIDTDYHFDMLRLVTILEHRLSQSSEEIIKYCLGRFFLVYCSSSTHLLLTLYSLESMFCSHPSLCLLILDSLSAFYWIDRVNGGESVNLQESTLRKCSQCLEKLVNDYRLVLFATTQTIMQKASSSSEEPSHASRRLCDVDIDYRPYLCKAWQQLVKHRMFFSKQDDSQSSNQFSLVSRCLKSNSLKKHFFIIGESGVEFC

RAD51;BCD(R266A)X2 [2] = target: T2, RAD51;BCD(R266A)X2 (human?;human?, UniProt Q06609;O15315;O43502;O75771;O43543 1-339;1-384;1-376;1-328;1-280, |R266A); assay: BLI; RAD51 loading retained; EMSA: 20 mM Tris-HCl pH 7.5, 2 mM MgCl2, 2 mM ATP, 37 C, 20 nM DNA, glutaraldehyde fixation; stopped-flow: 25 mM Tris-HCl pH 7.5, 5 mM MgCl2, 50 mM KCl, 2 mM ATP, 0.5 mM EDTA, 10% glycerol, 37 C; BLI: 50 mM Tris-HCl pH 7.5, 2 mM ATP, 50 mM KCl, 5 mM MgCl2, 0.05% Tween 20, room temperature; details: protein: recombinant;recombinant; tags: ;; copies: 1;1;1;1;1; label: 3' Cy3 on strand 1; reversed fork of 4 strands, 3' ssDNA tail
RAD51;BCDX2(R159A) [3] = target: T3, RAD51;BCDX2(R159A) (human?;human?, UniProt Q06609;O15315;O43502;O75771;O43543 1-339;1-384;1-376;1-328;1-280, |R159A); assay: as above; details: protein: recombinant;recombinant; tags: ;; copies: 1;1;1;1;1; label: 3' Cy3 on strand 1; reversed fork of 4 strands, 3' ssDNA tail
RAD51;BCDX2 complex [4] = target: T4, RAD51;BCDX2 complex (human?;human, UniProt Q06609;O15315;O43502;O75771;O43543 1-339;1-384;1-376;1-328;1-280, |); assay: BLI; enhanced RAD51 loading; EMSA: 20 mM Tris-HCl pH 7.5, 2 mM MgCl2, 2 mM ATP, 37 C, 20 nM DNA, glutaraldehyde fixation; stopped-flow: 25 mM Tris-HCl pH 7.5, 5 mM MgCl2, 50 mM KCl, 2 mM ATP, 0.5 mM EDTA, 10% glycerol, 37 C; BLI: 50 mM Tris-HCl pH 7.5, 2 mM ATP, 50 mM KCl, 5 mM MgCl2, 0.05% Tween 20, room temperature; details: protein: recombinant;recombinant; tags: ;Strep-tag and His-tag (XRCC2 N-terminal His); copies: 1;1;1;1;1; label: 3' Cy3 on strand 1; 5' biotin on strand 4; reversed fork of 4 strands, 3' ssDNA tail
RAD51;BCD(R266A)X2 [5] = target: T2, RAD51;BCD(R266A)X2; assay: BLI; no RAD51 loading by mutant; EMSA: 20 mM Tris-HCl pH 7.5, 2 mM MgCl2, 2 mM ATP, 37 C, 20 nM DNA, glutaraldehyde fixation; stopped-flow: 25 mM Tris-HCl pH 7.5, 5 mM MgCl2, 50 mM KCl, 2 mM ATP, 0.5 mM EDTA, 10% glycerol, 37 C; BLI: 50 mM Tris-HCl pH 7.5, 2 mM ATP, 50 mM KCl, 5 mM MgCl2, 0.05% Tween 20, room temperature; details: protein: recombinant;recombinant; tags: ;; copies: 1;1;1;1;1; label: 5' biotin
RAD51;BCDX2(R159A) [6] = target: T3, RAD51;BCDX2(R159A); assay: as above; details: protein: recombinant;recombinant; tags: ;; copies: 1;1;1;1;1; label: 5' biotin
RAD51;BCDX2 complex [7] = target: T4, RAD51;BCDX2 complex; assay: BLI; BCDX2 facilitates RAD51 binding; EMSA: 20 mM Tris-HCl pH 7.5, 2 mM MgCl2, 2 mM ATP, 37 C, 20 nM DNA, glutaraldehyde fixation; stopped-flow: 25 mM Tris-HCl pH 7.5, 5 mM MgCl2, 50 mM KCl, 2 mM ATP, 0.5 mM EDTA, 10% glycerol, 37 C; BLI: 50 mM Tris-HCl pH 7.5, 2 mM ATP, 50 mM KCl, 5 mM MgCl2, 0.05% Tween 20, room temperature; details: protein: recombinant;recombinant; tags: ;Strep-tag and His-tag (XRCC2 N-terminal His); copies: 1;1;1;1;1; label: 5' biotin
BCDX2 complex [8] = target: T1, BCDX2 complex; assay: EMSA; efficient binding; EMSA: 20 mM Tris-HCl pH 7.5, 2 mM MgCl2, 2 mM ATP, 37 C, 20 nM DNA, glutaraldehyde fixation; stopped-flow: 25 mM Tris-HCl pH 7.5, 5 mM MgCl2, 50 mM KCl, 2 mM ATP, 0.5 mM EDTA, 10% glycerol, 37 C; BLI: 50 mM Tris-HCl pH 7.5, 2 mM ATP, 50 mM KCl, 5 mM MgCl2, 0.05% Tween 20, room temperature; details: protein: recombinant; tags: Strep-tag and His-tag (XRCC2 N-terminal His); copies: 1;1;1;1; label: 5' FITC

T2 sequence (Q06609 whole entry, stated change not applied, one chain of several): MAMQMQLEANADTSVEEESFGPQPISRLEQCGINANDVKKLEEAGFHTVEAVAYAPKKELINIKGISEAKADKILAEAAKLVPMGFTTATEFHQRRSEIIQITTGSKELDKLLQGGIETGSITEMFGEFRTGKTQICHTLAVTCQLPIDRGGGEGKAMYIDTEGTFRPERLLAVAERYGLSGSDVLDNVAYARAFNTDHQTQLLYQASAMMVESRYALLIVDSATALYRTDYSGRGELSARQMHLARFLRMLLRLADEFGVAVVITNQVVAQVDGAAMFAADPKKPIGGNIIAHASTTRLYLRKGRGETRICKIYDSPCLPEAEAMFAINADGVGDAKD
T4 sequence (Q06609 whole entry, one chain of several): as the sequence (Q06609 whole entry, stated change not applied, one chain of several) above
T3 sequence (Q06609 whole entry, stated change not applied, one chain of several): as above

B1: 10ntRVF (mixed)
DNA 1: GACGCTGCCGAATTCTACCAGTGCCTTGCTATTTTTTTTTT
DNA 2: ATCTGTTGTAATCGTCAAGCTTTATGCCGTT
DNA 3: GAACGGCATAAAGCTTGACGATTACAACAGATCATGGAGCTGTCTAGAGGATCCGACTATCGA
DNA 4: ATCGATAGTCGGATCCTCTAGACAGCTCCATGTAGCAAGGCACTGGTAGAATTCGGCAGCGT
B1: binds (BCDX2 complex [1]).

B2: 20ntRVF (mixed)
DNA 1: GACGCTGCCGAATTCTACCAGTGCCTTGCTATTTTTTTTTTTTTTTTTTTTTTTTT
DNA 2: ATCTGTTGTAATCGTCAAGCTTTATGCCGTT
DNA 3: GAACGGCATAAAGCTTGACGATTACAACAGATCATGGAGCTGTCTAGAGGATCCGACTATCGA
DNA 4: ATCGATAGTCGGATCCTCTAGACAGCTCCATGTAGCAAGGCACTGGTAGAATTCGGCAGCGT
B2: binds (RAD51;BCD(R266A)X2 [2]); binds (RAD51;BCDX2(R159A) [3]).

B3: RVF25ssDNA (mixed)
DNA 1: GACGCTGCCGAATTCTACCAGTGCCTTGCTATTTTTTTTTTTTTTTTTTTTTTTTTTTTTT
DNA 2: ATCTGTTGTAATCGTCAAGCTTTATGCCGTT
DNA 3: GAACGGCATAAAGCTTGACGATTACAACAGATCATGGAGCTGTCTAGAGGATCCGACTATCGA
DNA 4: ATCGATAGTCGGATCCTCTAGACAGCTCCATGTAGCAAGGCACTGGTAGAATTCGGCAGCGT
B3: binds (RAD51;BCDX2 complex [4]).

TTTTTTTTTTTTTTTTTTTT (ssDNA) [biotin-dT20]: no binding (RAD51;BCD(R266A)X2 [5]); no binding (RAD51;BCDX2(R159A) [6]).

TTTTTTTTTTTTTTT (ssDNA) [biotin-dT15]: binds (RAD51;BCDX2 complex [7]).

GAATGTGTGTCTCAATC (ssDNA) [ssDNA 20mer]: binds (BCDX2 complex [8]).
